Measured values from paper PMC2063677.

Columns and labels:
[1] = target: T1, IMP KH3 (Drosophila melanogaster, UniProt Q8IR99 301-396); assay: filter binding
T1 sequence: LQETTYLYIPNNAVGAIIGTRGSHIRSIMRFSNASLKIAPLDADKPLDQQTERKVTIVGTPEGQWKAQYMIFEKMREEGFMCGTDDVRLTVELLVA

[2] = target: T2, IMP full length (Drosophila melanogaster, UniProt Q8IR99 1-573); assay: filter binding
T2 sequence: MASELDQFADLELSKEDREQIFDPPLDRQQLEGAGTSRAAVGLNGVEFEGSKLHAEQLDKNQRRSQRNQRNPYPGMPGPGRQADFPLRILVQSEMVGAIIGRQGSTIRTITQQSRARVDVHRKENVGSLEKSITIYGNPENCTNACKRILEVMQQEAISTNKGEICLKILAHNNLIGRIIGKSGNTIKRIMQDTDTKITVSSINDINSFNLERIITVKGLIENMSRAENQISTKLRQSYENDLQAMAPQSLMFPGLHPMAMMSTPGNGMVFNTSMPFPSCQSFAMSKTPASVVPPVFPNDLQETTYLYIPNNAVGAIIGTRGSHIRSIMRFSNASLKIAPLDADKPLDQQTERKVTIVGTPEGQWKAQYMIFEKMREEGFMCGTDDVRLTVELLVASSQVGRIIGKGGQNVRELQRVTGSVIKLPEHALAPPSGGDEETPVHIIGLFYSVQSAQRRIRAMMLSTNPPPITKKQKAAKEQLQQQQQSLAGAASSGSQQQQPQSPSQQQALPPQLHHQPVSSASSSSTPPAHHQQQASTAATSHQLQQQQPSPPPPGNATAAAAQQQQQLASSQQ

B1: 3x 4-12-13 WT (UUUAU) (ssRNA)
RNA: GUUUUUAUUAUUUUUAUUUUUUCAACUUUUUAUUAUUUUUAUUUUUUCAACUUUUUAUUAUUUUUAUUUUUUCAAC
- binding result [1]: binds
- binding result [2]: binds
